Consider two molecules from publication PMC6386368, “Multimerization of Homo sapiens TRPA1 ion channel cytoplasmic domains” (PLoS ONE, 2019).

Sequences and labels used below:
B1: MBPCC1: maltose-binding protein fusion of the human TRPA1 C-terminal coiled-coil CC1 (amino acids A1036-T1078) (domain or fragment, UniProt O75762 1036-1078, looked up)
chain: ADKSLEMEILKQKYRLKDLTFLLEKQHELIKLIIQKMEIISET
notes: human TRPA1 C-terminal coiled-coil CC1, amino acids A1036-T1078; source: E. coli BL21(DE3), purified (amylose resin, SEC); also co-expressed with ARD in BL21(DE3), in cleared lysate; not shown: poly-histidine, N-terminal, kept; MBP, N-terminal, kept

Data set [1] concerns the molecule itself. Description: SEC-MALS; MBPCC1 diluted to 1 mg/ul (~20 uM) as printed, absence of IP6, Superdex 200 column. (In general: In gel filtration, larger molecules generally elute earlier.)
Data set [2] deals with the molecule itself. In words: SEC-MALS; MBPCC1 at 15 mg/ml (~300 uM), absence of IP6, Superdex 200 column.
For data set [3], the target named is B1. In words: pull-down; amylose resin co-purification from cleared lysate of bacteria co-expressing ARD and MBPCC1; incubation and 4 washes at 4 C, Buffer A1T, with or without IP6 and/or AITC; anti-His Western blot. The conditions noted are these: partners not purified. (In general: Immunoblotting shows a protein as a band on a membrane.)

Usually stoichiometry N stands for a count of units in the complex or per binding partner. Turning to B1, the figures for the “stoichiometry N” value in data set [1] and in data set [2] were 3 and 4, respectively.

B2: TRPA1 ARD construct (N-terminal ankyrin repeat domains, amino acids 446-639) (domain or fragment, human, UniProt O75762 446-639, looked up)
chain: KKSPLHFAASYGRINTCQRLLQDISDTRLLNEGDLHGMTPLHLAAKNGHDKVVQLLLKKGALFLSDHNGWTALHHASMGGYTQTMKVILDTNLKCTDRLDEDGNTALHFAAREGHAKAVALLLSHNADIVLNKQQASFLHLALHNKRKEVVLTIIRSKRWDECLKIFSHNSPGNKCPITEMIEYLPECMKVLLD
notes: human TRPA1 ankyrin repeat domains with resolvable density in the cryoEM structure, amino acids 446-639; Cloned into pET28b (Nhe I and Sac I) in frame with an N-terminal poly-histidine tag; also called ARDs; N-terminal ARD; source: E. coli BL21(DE3), co-expressed with MBPCC1, in cleared lysate; not shown: poly-histidine, N-terminal, kept
As to B2, the “ARD:CC ratio” value in data set [3] is roughly 0.3.
